# In article PMC3625156, “Biochemical Characteristics of New Delhi Metallo-β-Lactamase-1 Show Unexpected Difference to Other MBLs” (PLoS ONE, 2013):
# Legend:
# [1] = molecular target: T1, New Delhi metallo-β-lactamase-1 (NDM-1) (Klebsiella pneumoniae, UniProt C7C422); experiment: initial hydrolysis rate of […] substrate by purified enzyme at varied ZnSO4; type: biochemical
# T1 construct: gene blaNDM-1; native (no fusion or tag) NDM-1
# [2] = system: C[C@@H](O)[C@H]1C(=O)N2C(C(=O)[O-])=C(SC3Cn4cnc[n+]4C3)[C@H](C)[C@H]12; experiment: purified protein; type: biochemical, Klebsiella pneumoniae; details: Zn2+
# [3] = system: CC(C)(O/N=C(\C(=O)N[C@@H]1C(=O)N2C(C(=O)[O-])=C(C[n+]3ccccc3)CS[C@H]12)c1csc(N)n1)C(=O)O; experiment: purified protein; type: biochemical, Klebsiella pneumoniae; details: Zn2+
# [4] = system: CO/N=C(\C(=O)N[C@@H]1C(=O)N2C(C(=O)O)=C(COC(C)=O)CS[C@H]12)c1csc(N)n1; experiment: purified protein; type: biochemical, Klebsiella pneumoniae; details: Zn2+
# [5] = system: CCN1CCN(C(=O)N[C@@H](C(=O)N[C@@H]2C(=O)N3[C@@H]2SC(C)(C)[C@@H]3C(=O)O)c2ccccc2)C(=O)C1=O; experiment: purified protein; type: biochemical, Klebsiella pneumoniae; details: Zn2+
# [6] = system: CC1(C)S[C@@H]2[C@H](NC(=O)Cc3ccccc3)C(=O)N2[C@H]1C(=O)O; experiment: purified protein; type: biochemical, Klebsiella pneumoniae; details: Zn2+
# [7] = system: CO[C@@]1(NC(=O)Cc2cccs2)C(=O)N2C(C(=O)O)=C(COC(N)=O)CS[C@@H]21; experiment: purified protein; type: biochemical, Klebsiella pneumoniae; details: Zn2+
# [8] = system: C[C@@H](O)[C@H]1C(=O)N2C(C(=O)O)=C(S[C@@H]3CN[C@H](C(=O)N(C)C)C3)[C@H](C)[C@H]12; experiment: purified protein; type: biochemical, Klebsiella pneumoniae; details: Zn2+
# T1 sequence (C7C422 29-270 limits assumed): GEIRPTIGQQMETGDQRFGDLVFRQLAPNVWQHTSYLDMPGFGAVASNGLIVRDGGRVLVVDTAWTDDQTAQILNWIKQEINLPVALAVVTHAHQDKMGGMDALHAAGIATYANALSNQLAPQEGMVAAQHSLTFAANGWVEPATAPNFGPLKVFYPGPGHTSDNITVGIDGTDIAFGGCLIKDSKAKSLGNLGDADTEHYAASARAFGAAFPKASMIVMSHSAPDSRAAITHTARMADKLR
compound,measurement,setting,value
CO/N=C(\C(=O)N[C@@H]1C(=O)N2C(C(=O)[O-])=C(C[N+]3(C)CCCC3)CS[C@H]12)c1csc(N)n1 [cefepime],initial hydrolysis rate of 0.5 mM substrate by purified enzyme at varied ZnSO4,[1],The hydrolysis rates of cephem (ceftazidime and cefepime) were found to be very sensitive to the ZnSO4 concentration
New Delhi metallo-β-lactamase-1 (NDM-1) (Klebsiella pneumoniae),Km,[2],155 µM
same,kcat,[2],106 s⁻¹
same,kcat/Km,[2],680000 M⁻¹ s⁻¹
same,Km,[3],74 µM
same,kcat,[3],60.9 s⁻¹
same,kcat/Km,[3],830000 M⁻¹ s⁻¹
same,Km,[4],43 µM
same,kcat,[4],31.5 s⁻¹
same,kcat/Km,[4],740000 M⁻¹ s⁻¹
same,Km,[5],69 µM
same,kcat,[5],8.3 s⁻¹
same,kcat/Km,[5],120000 M⁻¹ s⁻¹
same,Km,[6],103 µM
same,kcat,[6],27.5 s⁻¹
same,kcat/Km,[6],270000 M⁻¹ s⁻¹
same,Km,[7],63 µM
same,kcat,[7],38.3 s⁻¹
same,kcat/Km,[7],610000 M⁻¹ s⁻¹
same,Km,[8],42 µM
same,kcat,[8],30.8 s⁻¹
same,kcat/Km,[8],730000 M⁻¹ s⁻¹
